Among the data in ChEMBL document CHEMBL4321859, “Unforeseen Possibilities To Investigate the Regulation of Polyamine Metabolism Revealed by Novel C-Methylated Spermine Derivatives” (J Med Chem, 2019) are Km and Vmax values, retold here.

Substrate in this series: CC(CN)CNCCCCNCC(C)CN
In words: Substrate activity at recombinant human SMOX assessed as Km at 2000 to 6000 uM. Format: ADME.

B1: Spermine oxidase (Homo sapiens) (protein)
chain: MQSCESSGDSADDPLSRGLRRRGQPRVVVIGAGLAGLAAAKALLEQGFTDVTVLEASSHIGGRVQSVKLGHATFELGATWIHGSHGNPIYHLAEANGLLEETTDGERSVGRISLYSKNGVACYLTNHGRRIPKDVVEEFSDLYNEVYNLTQEFFRHDKPVNAESQNSVGVFTREEVRNRIRNDPDDPEATKRLKLAMIQQYLKVESCESSSHSMDEVSLSAFGEWTEIPGAHHIIPSGFMRVVELLAEGIPAHVIQLGKPVRCIHWDQASARPRGPEIEPRGEGDHNHDTGEGGQGGEEPRGGRWDEDEQWSVVVECEDCELIPADHVIVTVSLGVLKRQYTSFFRPGLPTEKVAAIHRLGIGTTDKIFLEFEEPFWGPECNSLQFVWEDEAESHTLTYPPELWYRKICGFDVLYPPERYGHVLSGWICGEEALVMEKCDDEAVAEICTEMLRQFTGNPNIPKPRRILRSAWGSNPYFRGSYSYTQVGSSGADVEKLAKPLPYTESSKTAPMQVLFSGEATHRKYYSTTHGALLSGQREAARLIEMYRDLFQQGT
By Km is commonly meant the substrate concentration at which the rate is half of its maximum. In general, Vmax refers to the top rate of the reaction or transport when substrate is in excess. Regarding B1, the Km was 121 µM and the Vmax came to 0.124 µmol/min/mg.
